The target in assay [1] is MBP-LEL113-201, maltose-binding protein linked to the CD81 large extracellular loop between residues 113 to 201 (UniProt P60033). Kind of assay: EIA: E2661-his on coated MBP-LEL113-201, detected with anti-His.
The target is the same in assay [2]. In words: EIA: HCVpp lysate on coated MBP-LEL113-201, detected with H53.

MBP-LEL113-201, maltose-binding protein linked to the CD81 large extracellular loop between residues 113 to 201, sequence (P60033 113-201 limits assumed): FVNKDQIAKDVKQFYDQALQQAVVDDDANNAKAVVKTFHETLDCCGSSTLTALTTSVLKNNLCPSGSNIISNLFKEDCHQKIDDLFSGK

For “E2661-his M+C459A (from UniProt P27958 384-661)”, the fold reduction in LEL binding in assay [1] came out at 16 fold.

For “HCVpp E2 C459A (from UniProt P27958 384-746)”, the CD81-binding function (reduced) in assay [2] is 40%.

In the case of “HCVpp E2 C452A (from UniProt P27958 384-746)”, the CD81-binding function (reduced) in assay [2] worked out at 80%.

In the case of “HCVpp E2 C569A (from UniProt P27958 384-746)”, the reduction in CD81 binding ability in assay [2] was 70%.

The substance “HCVpp E2 C486A (from UniProt P27958 384-746)” returned a % of WT LEL-binding activity retained in assay [2] of 80%.

In assay [1], “E2661-his C452A/C459A (from UniProt P27958 384-661)” had a % of WT CD81-LEL binding activity retained of 40% and a decrease in CD81 binding activity of 60%.

The record behind these values is patent publication US20130224246A1.
